From patent US9738911B2, “Methods of producing 7-carbon chemicals via pyruvate and succinate semialdehyde aldol condensation” (INVISTA North America S.a r.l., priority 2012, dated 2017) come the findings set out here.

Common to all, as to format: biochemical
Test [1] can be described thus: Carboxylate reductase activity assay, pimelate to pimelate semialdehyde. To be noted: 2 mM pimelate, 1 mM ATP, 1 mM NADPH, enhanced by sfp gene product, room temperature, 20 min; against empty vector control (FIG. 10). How it is done:
A sequence encoding a HIS-tag was added to the genes from Segniliparus rugosus and Segniliparus rotundus that encode the carboxylate reductases of SEQ ID NOs: 4 and 7, respectively (see FIGS. 7C and 7F), such that N-terminal HIS tagged carboxylate reductases could be produced. Each of the modified genes was cloned into a pET Duet expression vector along with a sfp gene encoding a HIS-tagged phosphopantetheine transferase from Bacillus subtilis, both under the T7 promoter. Each expression vector was transformed into a BL21[DE3] E. coli host and the resulting recombinant E. coli strains were cultivated at 37° C. in a 250 mL shake flask culture containing 50 mL LB media and antibiotic selection pressure, with shaking at 230 rpm. Each culture was induced overnight at 37° C. using an auto-induction media.
The pellet from each induced shake flask culture was harvested via centrifugation. Each pellet was resuspended and lysed via sonication, and the cell debris was separated from the supernatant via centrifugation. […]
Enzyme activity assays (i.e., from pimelate to pimelate semialdehyde) were performed in triplicate in a buffer composed of a final concentration of 50 mM HEPES buffer (pH=7.5), 2 mM pimelate, 10 mM MgCl, 1 mM ATP and 1 mM NADPH. […] The consumption of NADPH was monitored by absorbance at 340 nm.

Test [2] is described as follows: Carboxylate reductase activity assay, N7-acetyl-7-aminoheptanoate to N7-acetyl-7-aminoheptanal. The following applies: 2 mM N7-acetyl-7-aminoheptanoate, 1 mM ATP, 1 mM NADPH, enhanced by sfp gene product, room temperature, 20 min; against empty vector control (FIG. 12). How it is done: The activity of each of the N-terminal His-tagged carboxylate reductases of SEQ ID NOs: 3, 6, and 7 (see Examples 4, and FIGS. 7B, 7E, and 7F) for converting N7-acetyl-7-aminoheptanoate to N7-acetyl-7-aminoheptanal was assayed in triplicate in a buffer composed of a final concentration of 50 mM HEPES buffer (pH=7.5), 2 mM N7-acetyl-7-aminoheptanoate, 10 mM MgCl2, 1 mM ATP, and 1 mM NADPH. The assays were initiated by adding purified carboxylate reductase and phosphopantetheine transferase or the empty vector control to the assay buffer containing the N7-acetyl-7-aminoheptanoate then incubated at room temperature for 20 min. The consumption of NADPH was monitored by absorbance at 340 nm.

Test [3] in a line: Thioesterase enzyme activity assay, pimeloyl-CoA to pimelate. The following applies: 667 μM pimeloyl-CoA, 0.8 μM enzyme, 37° C., 20 min, pH 7.4; compared to empty vector control (FIG. 8). The protocol: A sequence encoding an N-terminal His tag was added to the tesB gene from Escherichia coli that encodes a thioesterase (SEQ ID NO 1, see FIG. 7A), such that an N-terminal HIS tagged thioesterase could be produced. The modified tesB gene was cloned into a pET15b expression vector under control of the T7 promoter. The expression vector was transformed into a BL21[DE3] E. coli host. The resulting recombinant E. coli strain was cultivated at 37° C. in a 500 mL shake flask culture containing 50 mL Luria Broth (LB) media and antibiotic selection pressure, with shaking at 230 rpm. The culture was induced overnight at 17° C. using 0.5 mM IPTO.
The pellet from the induced shake flask culture was harvested via centrifugation. The pellet was resuspended and lysed in Y-Per™ solution (ThermoScientific, Rockford, Ill.). The cell debris was separated from the supernatant via centrifugation. […]
The enzyme activity assay was performed in triplicate in a buffer composed of 50 mM phosphate buffer (pH=7.4), 0.1 mM Ellman's reagent, and 667 μM of pimeloyl-CoA (as substrate). […] The release of Coenzyme A was monitored by absorbance at 412 nm. The absorbance associated with the substrate only control, which contained boiled enzyme, was subtracted from the active enzyme assay absorbance and compared to the empty vector control.

B1: SEQ ID NO 4: Segniliparus rugosus carboxylate reductase (Genbank Accession No. EFV 11917.1) (protein, listed as Segniliparus rugosus)
chain: MGDGEERAKRFFQRIGELSATDPQFAAAAPDPAVVEAVSDPSLSFTRYLDTLMRGYAERPALAHRVGAGYETISYGELWARVGAIAAAWQADGLAPGDFVATVGFTSPDYVAVDLAAARSGLVSVPLQAGASLAQLVGILEETEPKVLAASASSLEGAVACALAAPSVQRLVVFDLRGPDASESAADERRGALADAEEQLARAGRAVVVETLADLAARGEALPEAPLFEPAEGEDPLALLIYTSGSTGAPKGAMYSQRLVSQLWGRTPVVPGMPNISLHYMPLSHSYGRAVLAGALSAGGTAHFTANSDLSTLFEDIALARPTFLALVPRVCEMLFQESQRGQDVAELRERVLGGRLLVAVCGSAPLSPEMRAFMEEVLGFPLLDGYGSTEALGVMRNGIIQRPPVIDYKLVDVPELGYRTTDKPYPRGELCIRSTSLISGYYKRPEITAEVFDAQGYYKTGDVMAEIAPDHLVYVDRSKNVLKLSQGEFVAVAKLEAAYGTSPYVKQIFVYGNSERSFLLAVVVPNAEVLGARDQEEAKPLIAASLQKIAKEAGLQSYEVPRDFLIETEPFTTQNGLLSEVGKLLRPKLKARYGEALEARYDEIAHGQADELRALRDGAGQRPVVETVVRAAVAISGSEGAEVGPEANFADLGGDSLSALSLANLLHDVFEVEVPVRIIIGPTASLAGIAKHIEAERAGASAPTAASVHGAGATRIRASELTLEKFLPEDLLAAAKGLPAADQVRTVLLTGANGWLGRFLALEQLERLARSGQDGGKLICLVRGKDAAAARRRIEETLGTDPALAARFAELAEGRLEVVPGDVGEPKFGLDDAAWDRLAEEVDVIVHPAALVNHVLPYHQLFGPNVVGTAEIIRLAITAKRKPVTYLSTVAVAAGVEPSSFEEDGDIRAVVPERPLGDGYANGYGNSKWAGEVLLREAHELVGLPVAVFRSDMILAHTRYTGQLNVPDQFTRLVLSLLATGIAPKSFYQQGAAGERQRAHYDGIPVDFTAEAITTLGAEPSWFDGGAGFRSFDVFNPHHDGVGLDEFVDWLIEAGHPISRIDDHKEWFARFETAVRGLPEAQRQHSLLPLLRAYSFPHPPVDGSVYPTGKFQGAVKAAQVGSDHDVPHLGKALIVKYADDLKALGLL
In the case of B1, the “substrate acceptance, consumption of NADPH by absorbance at 340 nm” value (“substrate acceptance, consumption” below) in test [1] is “accepted pimelate as substrate”.

B2: SEQ ID NO 6: Mycobacterium massiliense carboxylate reductase (Genbank Accession No. EIV 11143.1) (protein)
chain: MTNETNPQQEQLSRRIESLRESDPQFRAAQPDPAVAEQVLRPGLHLSEAIAALMTGYAERPALGERARELVIDQDGRTTLRLLPRFDTTTYGELWSRTTSVAAAWHHDATHPVKAGDLVATLGFTSIDYTVLDLAIMILGGVAVPLQTSAPASQWTTILAEAEPNTLAVSIELIGAAMESVRATPSIKQVVVFDYTPEVDDQREAFEAASTQLAGTGIALETLDAVIARGAALPAAPLYAPSAGDDPLALLIYTSGSTGAPKGAMHSENIVRRWWIREDVMAGTENLPMIGLNFMPMSHIMGRGTLTSTLSTGGTGYFAASSDMSTLFEDMELIRPTALALVPRVCDMVFQRFQTEVDRRLASGDTASAEAVAAEVKADIRDNLFGGRVSAVMVGSAPLSEELGEFIESCFELNLTDGYGSTEAGMVFRDGIVQRPPVIDYKLVDVPELGYFSTDKPHPRGELLLKTDGMFLGYYKRPEVTASVFDADGFYMTGDIVAELAHDNIEIIDRRNNVLKLSQGEFVAVATLEAEYANSPVVHQIYVYGSSERSYLLAVVVPTPEAVAAAKGDAAALKTTIADSLQDIAKEIQLQSYEVPRDFIIEPQPFTQGNGLLTGIAKLARPNLKAHYGPRLEQMYAEIAEQQAAELRALHGVDPDKPALETVLKAAQALLGVSSAELAADAHFTDLGGDSLSALSFSDLLRDIFAVEVPVGVIVSAANDLGGVAKFVDEQRHSGGTRPTAETVHGAGHTEIRAADLTLDKFIDEATLHAAPSLPKAAGIPHTVLLTGSNGYLGHYLALEWLERLDKTDGKLIVIVRGKNAEAAYGRLEEAFDTGDTELLAHFRSLADKHLEVLAGDIGDPNLGLDADTWQRLADTVDVIVHPAALVNHVLPYNQLFGPNVVGTAEIIKLAITTKIKPVTYLSTVAVAAYVDPTTFDEESDIRLISAVRPIDDGYANGYGNAKWAGEVLLREAHDLCGLPVAVFRSDMILAHSRYTGQLNVPDQFTRLILSLIATGIAPGSFYQAQTTGERPLAHYDGLPGDFTAEAITTLGTQVPEGSEGFVTYDCVNPHADGISLDNFVDWLIEAGYPIARIDNYTEWFTRFDTAIRGLSEKQKQHSLLPLLHAFEQPSAAENHGVVPAKRFQHAVQAAGIGPVGQDGTTDIPHLSRRLIVKYAKDLEQLGLL
modifications: Mycobacterium massiliense
On to B2, for which, in test [2], the “substrate acceptance, consumption” value is reported as “accepted N7-acetyl-7-aminoheptanoate as substrate”.

B3: gene product of tesB: Escherichia coli thioesterase encoded by tesB (GenBank Accession No. AAA24665.1) (protein, listed as Escherichia coli)
chain: MSQALKNLLTLLNLEKIEEGLFRGQSEDLGLRQVFGGQVVGQALYAAKETVPEERLVHSFHSYFLRPGDSKKPIIYDVETLRDGNSFSARRVAAIQNGKPIFYMTASFQAPEAGFEHQKTMPSAPAPDGLPSETQIAQSLAHLLPPVLKDKFICDRPLEVRPVEFHNPLKGHVAEPHRQVWIRANGSVPDDLRVHQYLLGYASDLNFLPVALQPHGIGFLEPGIQIATIDHSMWFHRPFNLNEWLLYSVESTSASSARGFVRGEFYTQDGVLVASTVQEGVMRNHN
For the molecule B3, the “substrate acceptance, release of Coenzyme A monitored by absorbance at 412 nm” value in test [3] was “accepted pimeloyl-CoA as substrate”.

B4: SEQ ID NO 3: Mycobacterium smegmatis carboxylate reductase (Genbank Accession No. ABK71854.1) (protein, listed as Mycobacterium smegmatis)
chain: MTSDVHDATDGVTETALDDEQSTRRIAELYATDPEFAAAAPLPAVVDAAHKPGLRLAEILQTLFTGYGDRPALGYRARELATDEGGRTVTRLLPRFDTLTYAQVWSRVQAVAAALRHNFAQPIYPGDAVATIGFASPDYLTLDLVCAYLGLVSVPLQHNAPVSRLAPILAEVEPRILTVSAEYLDLAVESVRDVNSVSQLVVFDHHPEVDDHRDALARAREQLAGKGIAVTTLDAIADEGAGLPAEPIYTADHDQRLAMILYTSGSTGAPKGAMYTEAMVARLWTMSFITGDPTPVINVNFMPLNHLGGRIPISTAVQNGGTSYFVPESDMSTLFEDLALVRPTELGLVPRVADMLYQHHLATVDRLVTQGADELTAEKQAGAELREQVLGGRVITGFVSTAPLAAEMRAFLDITLGAHIVDGYGLTETGAVTRDGVIVRPPVIDYKLIDVPELGYFSTDKPYPRGELLVRSQTLTPGYYKRPEVTASVFDRDGYYHTGDVMAETAPDHLVYVDRRNNVLKLAQGEFVAVANLEAVFSGAALVRQIFVYGNSERSFLLAVVVPTPEALEQYDPAALKAALADSLQRTARDAELQSYEVPADFIVETEPFSAANGLLSGVGKLLRPNLKDRYGQRLEQMYADIAATQANQLRELRRAAATQPVIDTLTQAAATILGTGSEVASDAHFTDLGGDSLSALTLSNLLSDFFGFEVPVGTIVNPATNLAQLAQHIEAQRTAGDRRPSFTTVHGADATEIRASELTLDKFIDAETLRAAPGLPKVTTEPRTVLLSGANGWLGRFLTLQWLERLAPVGGTLITIVRGRDDAAARARLTQAYDTDPELSRRFAELADRHLRVVAGDIGDPNLGLTPEIWHRLAAEVDLVVHPAALVNHVLPYRQLFGPNVVGTAEVIKLALTERIKPVTYLSTVSVAMGIPDFEEDGDIRTVSPVRPLDGGYANGYGNSKWAGEVLLREAHDLCGLPVATFRSDMILAHPRYRGQVNVPDMFTRLLLSLLITGVAPRSFYIGDGERPRAHYPGLTVDFVAEAVTTLGAQQREGYVSYDVMNPHDDGISLDVFVDWLIRAGHPIDRVDDYDDWVRRFETALTALPEKRRAQTVLPLLHAFRAPQAPLRGAPEPTEVFHAAVRTAKVGPGDIPHLDEALIDKYIRDLREFGLI
On to B4, for which, in test [2], the “substrate acceptance, consumption” value is “accepted N7-acetyl-7-aminoheptanoate as substrate”.
